Laboratory results published in publication PMC3171579 (ACS combinatorial science, 2011).
Non-standard residues stand in square brackets, D forms with d. *: point of attachment. Dkb = 3,3-dimethyl-2-ketobutyryl, CC(C)(C)C(=O)C(=O)*; d(β3hF) = N[C@@H](CC(=O)O)Cc1ccccc1; Pip = O=C(O)[C@@H]1CCCCN1; Nle = CCCC[C@H](N)C(=O)O

Test system: cyclophilin A (CypA)
Assay: not given
Conditions: cell free assay; cited from earlier work

| Molecule | IC50 [µM] |
| --- | --- |
| CC[C@H]1C[C@H](C)[C@@]2(NC1=O)O[C@@H](C[C@H](O)[C@@H](C)CC/C=C/C=C(\C)[C@@H]1C/C=C/C=C/[C@H](O)[C@H](C)[C@@H](O)[C@@H](CCC(C)=O)C(=O)N[C@@H](C(C)C)C(=O)N[C@@H](Cc3cccc(O)c3)C(=O)N3CCC[C@H](N3)C(=O)O1)[C@H](C)[C@H](O)[C@@H]2C [Sanglifehrin A] | ~0.007 |

Target: T1, FK506-binding protein 12 (human, UniProt P62942 1-108)
T1 sequence (P62942 whole entry): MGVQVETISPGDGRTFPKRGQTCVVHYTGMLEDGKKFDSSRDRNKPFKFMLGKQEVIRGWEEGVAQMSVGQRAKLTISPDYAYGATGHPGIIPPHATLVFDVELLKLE
Assay: fluorescence polarisation
Conditions: not given

| IC50 [µM] | Molecule |
| --- | --- |
| 18 | cyclo(AAF[Dkb][Pip][d(β3hF)]Q) (also: Dkb 4 joined by ester to 3) [rapalog 2k] |
| 266 | cyclo(AA[dA][Dkb][Pip][dI]Q) (also: Dkb 4 joined by ester to 3) [rapalog 2i] |

Target: T1, FK506-binding protein 12
Assay: fluorescence polarisation
Conditions: not given
Remark: another data set of the same source

| IC50 [µM] | Molecule |
| --- | --- |
| > 100 | cyclo(K[dF][dA][Dkb][Pip][d(β3hF)]Q) (also: ester bond between residues 3 and 4) [rapalog 11 (R3 D-Phe, R4 Lys)] |
| 41 | cyclo([dT]P[dA][Dkb][Pip][d(β3hF)]Q) (also: 4 Dkb: ester to 3) [rapalog 11 (R3 Pro, R4 D-Thr)] |
| > 100 | cyclo([Nle][dT][dA][Dkb][Pip][d(β3hF)]Q) (also: ester bond between residues 3 and 4) [rapalog 11 (R3 D-Thr, R4 Nle)] |
| 38 | cyclo(A[dT]P[dA][Dkb][Pip][d(β3hF)]Q) (also: 5 Dkb: ester to 4) [rapalog 12 (R3 Pro, R4 D-Thr)] |
| > 100 | cyclo(A[dF][dV][dA][Dkb][Pip][d(β3hF)]Q) (also: 5 Dkb: ester to 4) [rapalog 12 (R3 D-Val, R4 D-Phe)] |
| > 100 | cyclo(AAK[dA][Dkb][Pip][d(β3hF)]Q) (also: 5 Dkb: ester to 4) [rapalog 12 (R3 Lys, R4 Ala)] |
| > 100 | cyclo(K[dT][dA][Dkb][Pip][d(β3hF)]Q) (also: ester bond between residues 3 and 4) [rapalog 11 (R3 D-Thr, R4 Lys)] |
| 21 | cyclo(WP[dA][Dkb][Pip][d(β3hF)]Q) (also: 4 Dkb: ester to 3) [rapalog 11 (R3 Pro, R4 Trp)] |
| 58 | cyclo(PK[dA][Dkb][Pip][d(β3hF)]Q) (also: ester bond between residues 3 and 4) [rapalog 11 (R3 Lys, R4 Pro)] |
| > 100 | cyclo([dF][dV][dA][Dkb][Pip][d(β3hF)]Q) (also: ester bond between residues 3 and 4) [rapalog 11 (R3 D-Val, R4 D-Phe)] |
| > 100 | cyclo(A[dV][dV][dA][Dkb][Pip][d(β3hF)]Q) (also: 5 Dkb: ester to 4) [rapalog 12 (R3 D-Val, R4 D-Val)] |
| 27 | cyclo(PP[dA][Dkb][Pip][d(β3hF)]Q) (also: 4 Dkb: ester to 3) [rapalog 11 (R3 Pro, R4 Pro)] |
| > 100 | cyclo(A[dT][Nle][dA][Dkb][Pip][d(β3hF)]Q) (also: 5 Dkb: ester to 4) [rapalog 12 (R3 Nle, R4 D-Thr)] |
| 43 | cyclo(A[dV]P[dA][Dkb][Pip][d(β3hF)]Q) (also: 5 Dkb: ester to 4) [rapalog 12 (R3 Pro, R4 D-Val)] |
| 33 | cyclo(AP[dA][Dkb][Pip][d(β3hF)]Q) (also: ester bond between residues 3 and 4) [rapalog 11 (R3 Pro, R4 Ala)] |
| > 100 | cyclo(AP[dF][dA][Dkb][Pip][d(β3hF)]Q) (also: 5 Dkb: ester to 4) [rapalog 12 (R3 D-Phe, R4 Pro)] |
| 12 | cyclo(WK[dA][Dkb][Pip][d(β3hF)]Q) (also: ester bond between residues 3 and 4) [rapalog 11 (R3 Lys, R4 Trp)] |
| > 100 | cyclo(KK[dA][Dkb][Pip][d(β3hF)]Q) (also: ester bond between residues 3 and 4) [rapalog 11 (R3 Lys, R4 Lys)] |
| 62 | cyclo([dT]K[dA][Dkb][Pip][d(β3hF)]Q) (also: ester bond between residues 3 and 4) [rapalog 11 (R3 Lys, R4 D-Thr)] |
| > 100 | cyclo(AP[dT][dA][Dkb][Pip][d(β3hF)]Q) (also: 5 Dkb: ester to 4) [rapalog 12 (R3 D-Thr, R4 Pro)] |
| > 100 | cyclo(AK[dA][Dkb][Pip][d(β3hF)]Q) (also: ester bond between residues 3 and 4) [rapalog 11 (R3 Lys, R4 Ala)] |

| IC50 [µM] | Molecule |
| --- | --- |
| 64 | cyclo([dV]P[dA][Dkb][Pip][d(β3hF)]Q) (also: 4 Dkb: ester to 3) [rapalog 11 (R3 Pro, R4 D-Val)] |
| 36 | cyclo(KP[dA][Dkb][Pip][d(β3hF)]Q) (also: 4 Dkb: ester to 3) [rapalog 11 (R3 Pro, R4 Lys)] |
| > 100 | cyclo(K[Nle][dA][Dkb][Pip][d(β3hF)]Q) (also: ester bond between residues 3 and 4) [rapalog 11 (R3 Nle, R4 Lys)] |
| 93 | cyclo(GK[dA][Dkb][Pip][d(β3hF)]Q) (also: ester bond between residues 3 and 4) [rapalog 11 (R3 Lys, R4 Gly)] |
| 71 | cyclo([Nle]P[dA][Dkb][Pip][d(β3hF)]Q) (also: 4 Dkb: ester to 3) [rapalog 11 (R3 Pro, R4 Nle)] |
| 21 | cyclo(DP[dA][Dkb][Pip][d(β3hF)]Q) (also: ester bond between residues 3 and 4) [rapalog 11 (R3 Pro, R4 Asp)] |
| 6 | cyclo(AGP[dA][Dkb][Pip][d(β3hF)]Q) (also: 5 Dkb: ester to 4) [rapalog 12 (R3 Pro, R4 Gly)] |
| 46 | cyclo([dF]P[dA][Dkb][Pip][d(β3hF)]Q) (also: 4 Dkb: ester to 3) [rapalog 11 (R3 Pro, R4 D-Phe)] |
| 80 | cyclo([dV]K[dA][Dkb][Pip][d(β3hF)]Q) (also: ester bond between residues 3 and 4) [rapalog 11 (R3 Lys, R4 D-Val)] |
| 3 | cyclo(ADP[dA][Dkb][Pip][d(β3hF)]Q) (also: 5 Dkb: ester to 4) [rapalog 12 (R3 Pro, R4 Asp)] |
| 29 | cyclo(AKP[dA][Dkb][Pip][d(β3hF)]Q) (also: 5 Dkb: ester to 4) [rapalog 12 (R3 Pro, R4 Lys)] |
| 21 | cyclo(AAP[dA][Dkb][Pip][d(β3hF)]Q) (also: 5 Dkb: ester to 4) [rapalog 12 (R3 Pro, R4 Ala)] |
| 87 | cyclo(A[dF]P[dA][Dkb][Pip][d(β3hF)]Q) (also: 5 Dkb: ester to 4) [rapalog 12 (R3 Pro, R4 D-Phe)] |
| > 100 | cyclo(AKA[dA][Dkb][Pip][d(β3hF)]Q) (also: 5 Dkb: ester to 4) [rapalog 12 (R3 Ala, R4 Lys)] |
| > 100 | cyclo(A[dT]K[dA][Dkb][Pip][d(β3hF)]Q) (also: 5 Dkb: ester to 4) [rapalog 12 (R3 Lys, R4 D-Thr)] |
| > 100 | cyclo(AK[dF][dA][Dkb][Pip][d(β3hF)]Q) (also: 5 Dkb: ester to 4) [rapalog 12 (R3 D-Phe, R4 Lys)] |
| > 100 | cyclo(PA[dA][Dkb][Pip][d(β3hF)]Q) (also: ester bond between residues 3 and 4) [rapalog 11 (R3 Ala, R4 Pro)] |
| > 100 | cyclo(A[Nle]K[dA][Dkb][Pip][d(β3hF)]Q) (also: 5 Dkb: ester to 4) [rapalog 12 (R3 Lys, R4 Nle)] |
| > 100 | cyclo(AP[dV][dA][Dkb][Pip][d(β3hF)]Q) (also: 5 Dkb: ester to 4) [rapalog 12 (R3 D-Val, R4 Pro)] |
| > 100 | cyclo([dV][dV][dA][Dkb][Pip][d(β3hF)]Q) (also: ester bond between residues 3 and 4) [rapalog 11 (R3 D-Val, R4 D-Val)] |
